Test results as given in publication PMC3680600 (Journal of the American Chemical Society, 2013).
No end group written: not given here.

These substances were tested against full-length recombinant human NEMO (Homo sapiens, UniProt Q9Y6K9, C11A/C131A/C167A/C76A/C95A) (assay: Fluorescence anisotropy). Conditions: KD2 competition assay vs KD1 direct binding assay.

How did the “KD2 of unlabeled peptide relative to KD1 of FITC-IKKβ” value turn out when “PAKKSEELVAEAHNLCTLLENAIQDTVREQDQSFTALDWSWLQTE [IKKβ(701–745)]” was run?
The value was ~ 4 fold.

Each substance was assayed against NF-κB Essential Modulator (NEMO), full-length recombinant human protein (residues 2–419) with five cysteine-to-alanine substitutions (human) (UniProt Q9Y6K9) (assay: fluorescence polarisation). Conditions: not given.

For “MBP-IKKβ-His(C716S) D738A (from UniProt O14920 701-745) (domain or fragment)”, which Kd is on record?
The Kd was > 0.87 µM.

With “MBP-IKKβ-His(C716S) L708A (from UniProt O14920 701-745) (domain or fragment)” as the substance, how does the Kd read?
The Kd was > 0.87 µM.

For “MBP-IKKβ-His(C716S) L719A (from UniProt O14920 701-745) (domain or fragment)”, which Kd is on record?
Its Kd is > 0.87 µM.

Which Kd does the source give for “MBP-IKKβ-His(C716S) L742A (from UniProt O14920 701-745) (domain or fragment)” here?
The Kd was > 0.87 µM.

“MBP-IKKβ-His(C716S) W739A (from UniProt O14920 701-745) (domain or fragment)” was tested. Which Kd did it give?
The Kd was > 0.87 µM.

Which Kd does the source give for “MBP-IKKβ-His(C716S) W741A (from UniProt O14920 701-745) (domain or fragment)” here?
The Kd was > 0.87 µM.

With “WT MBP-IKKβ-His (from UniProt O14920 701-745) (domain or fragment)” as the substance, how does the Kd read?
Its Kd is 0.015 µM.

For “cleaved IKKβ peptide D738A (from UniProt O14920 701-745)”, which Kd is on record?
Its Kd is 11 µM.

With “cleaved IKKβ peptide L708A (from UniProt O14920 701-745)” as the substance, how does the Kd read?
Its Kd is 2.7 µM.

For “cleaved IKKβ peptide L719A (from UniProt O14920 701-745)”, which Kd is on record?
The Kd was 21 µM.

For “cleaved IKKβ peptide L742A (from UniProt O14920 701-745)”, which Kd is on record?
Its Kd is 5.5 µM.

With “cleaved IKKβ peptide W739A (from UniProt O14920 701-745)” as the substance, how does the Kd read?
The Kd was 35 µM.

Which Kd does the source give for “cleaved IKKβ peptide W741A (from UniProt O14920 701-745)” here?
The Kd was 9.3 µM.
